From patent US20090258001A1

Tests used:
[1] = molecular target: CD3 (CD3/TCR complex) on CD4+ and CD8+ T cells of patients (human) (UniProt P07766); assay: flow cytometry of CD4+ T cells, free CD3 sites by biotinylated TRX4; Example 4 Cohort A, 2 hours after last infusion
[2] = molecular target: CD3 (CD3/TCR complex) on CD4+ and CD8+ T cells of patients (human) (UniProt P07766); assay: flow cytometry, free sites by biotinylated TRX4; Example 4, 4-dose cohorts, after doses of 0.5 mg and higher
[3] = molecular target: CD3 (CD3/TCR complex) on CD4+ and CD8+ T cells of patients (human) (UniProt P07766); assay: flow cytometry of CD4+ T cells, free CD3 sites by biotinylated TRX4; Example 4 Cohort A, 0.5 mg
[4] = molecular target: CD3 (CD3/TCR complex) on CD4+ and CD8+ T cells of patients (human) (UniProt P07766); assay: flow cytometry of CD4+ T cells, anti-human IgG; Example 4 Cohort C, end of 0.3 mg infusion
[5] = molecular target: CD3 (CD3/TCR complex) on CD4+ and CD8+ T cells of patients (human) (UniProt P07766); assay: flow cytometry of CD4+ T cells, free CD3 sites by biotinylated TRX4; Example 4 Cohort C, 1.0 mg
[6] = molecular target: CD3 (CD3/TCR complex) on CD4+ and CD8+ T cells of patients (human) (UniProt P07766); assay: flow cytometry of CD4+ T cells, free CD3 sites by biotinylated TRX4; Example 4 Cohort B, 0.2 mg
[7] = molecular target: CD3 (CD3/TCR complex) on CD4+ and CD8+ T cells of patients (human) (UniProt P07766); assay: flow cytometry of CD4+ T cells, anti-human IgG; Example 4 Cohort A*, end of 0.05 mg infusion
[8] = molecular target: CD3 (CD3/TCR complex) on CD4+ and CD8+ T cells of patients (human) (UniProt P07766); assay: flow cytometry of CD4+ T cells, free CD3 sites by biotinylated TRX4; Example 4 Cohort B, Day 5
[9] = molecular target: CD3 (CD3/TCR complex) on CD4+ and CD8+ T cells of patients (human) (UniProt P07766); assay: flow cytometry of CD4+ T cells, anti-human IgG; Example 4 Cohort B, end of 0.3 mg infusion

Sequence of UniProt P07766 (P07766 23-207, chain 1 of 3): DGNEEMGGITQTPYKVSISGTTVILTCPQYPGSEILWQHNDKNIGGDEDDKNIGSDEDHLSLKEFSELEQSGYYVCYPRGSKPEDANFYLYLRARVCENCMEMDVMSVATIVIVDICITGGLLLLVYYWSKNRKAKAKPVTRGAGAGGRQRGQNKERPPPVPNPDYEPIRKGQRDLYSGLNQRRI
Sequence of UniProt P07766 (chain, as listed by the source, chain 2 of 3): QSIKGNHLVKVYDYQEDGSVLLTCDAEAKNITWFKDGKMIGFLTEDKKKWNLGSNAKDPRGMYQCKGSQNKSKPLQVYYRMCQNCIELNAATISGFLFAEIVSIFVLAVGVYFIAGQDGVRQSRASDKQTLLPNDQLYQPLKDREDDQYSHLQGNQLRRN
Sequence of UniProt P07766 (chain, as listed by the source, chain 3 of 3): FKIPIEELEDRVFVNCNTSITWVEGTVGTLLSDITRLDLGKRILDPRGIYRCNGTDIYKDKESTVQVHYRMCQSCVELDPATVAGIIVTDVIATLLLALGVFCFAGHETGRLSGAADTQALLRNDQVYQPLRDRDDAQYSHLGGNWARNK

Substance: TRX4 antibody
- percent saturation of CD3 [1]: 60%
- percent saturation of CD3 [2]: > 90%
- percent saturation of CD3 [3]: 95%
- cell-bound TRX4 (MESF of anti-human IgG) [4]: 600000 MESF units
- percent saturation of CD3 [5]: 97%
- percent saturation of CD3 [6]: 60%
- cell-bound TRX4 (MESF of anti-human IgG) [7]: 300000 MESF units
- percent saturation of CD3 [8]: 40%
- cell-bound TRX4 (MESF of anti-human IgG) [9]: 420000 MESF units
